T1: ancrod (recombinant SVSP) (Calloselasma rhodostoma? (printed C. …, UniProt P26324 1-234))
T1 sequence: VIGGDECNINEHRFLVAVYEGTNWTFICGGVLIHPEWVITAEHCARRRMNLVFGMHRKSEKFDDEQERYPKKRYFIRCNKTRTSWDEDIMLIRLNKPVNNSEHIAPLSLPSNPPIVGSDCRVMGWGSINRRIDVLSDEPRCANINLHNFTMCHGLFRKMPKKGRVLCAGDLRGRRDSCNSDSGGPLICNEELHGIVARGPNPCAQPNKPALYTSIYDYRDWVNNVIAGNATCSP


Legend:
[1] = biological target: T1, ancrod (recombinant SVSP); experiment: fluorescence bead binding assay; 2 mM Mg2+; Kd: 50 mM Tris-HCl pH 7.5, 150 mM NaCl, 2 mM MgCl2, RT, 1 h, toxin on Sepharose beads; ALISA: 100 ng toxin coated, aptamer in nuclease-free water, RT, 2 h, PBST; settings: protein: recombinant; label: 6-FAM (Kd); HRP (ALISA)
[2] = biological target: T1, ancrod (recombinant SVSP); experiment: fluorescence bead binding assay; 2 mM Mg2+; Kd only in figure, within 3.0-17.8 nM; Kd: 50 mM Tris-HCl pH 7.5, 150 mM NaCl, 2 mM MgCl2, RT, 1 h, toxin on Sepharose beads; ALISA: 100 ng toxin coated, aptamer in nuclease-free water, RT, 2 h, PBST; settings: protein: recombinant; label: 6-FAM
[3] = biological target: T2, batroxobin (recombinant SVSP) (Bothrops atrox? (printed B. atrox), UniProt P04971 25-255); experiment: fluorescence bead binding assay; settings: protein: recombinant; label: 6-FAM
[4] = biological target: T2, batroxobin (recombinant SVSP); experiment: fluorescence bead binding assay; 2 mM Mg2+; settings: protein: recombinant; label: 6-FAM (Kd); HRP (ALISA)

T2 sequence (P04971 25-255): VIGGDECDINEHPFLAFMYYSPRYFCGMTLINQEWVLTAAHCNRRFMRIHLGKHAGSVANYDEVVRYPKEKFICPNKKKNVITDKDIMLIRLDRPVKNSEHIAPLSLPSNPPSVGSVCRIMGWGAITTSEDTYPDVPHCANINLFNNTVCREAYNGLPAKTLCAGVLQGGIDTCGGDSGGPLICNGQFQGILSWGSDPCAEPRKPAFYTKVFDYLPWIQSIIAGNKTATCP

Row | Binder | binding result [2] | binding result [3] | other results
1 | GGACCGACCCTTTAGCATTTATGACCCTTGTCATCGGGCT (ssDNA) [ancrod-55] |  |  | Kd [1]: 3 nM
2 | TAGCATGGGTGGTCAATTTAAGTACAGTGTCGTGCTCACT (ssDNA) [ancrod-7] | binds |  | 
3 | AGGTCCTATTGTATACAGGGAGCCCTCGGTCTTGCTGTGA (ssDNA) [batroxobin-29] |  | binds | 
4 | TAGTAACAGGTCTGCTTAGGCTTGCGAGGAGTACTAGTAT (ssDNA) [batroxobin-5] |  | binds | 
5 | TGTCTGGTATGCAAAGGACTGCTGTACTGTTAGCTTTTGT (ssDNA) [batroxobin-26] |  |  | Kd [4]: 4.7 nM
6 | TGGTCTAAGGACTGCTTAGGATTGCGATATGGTCCAGATG (ssDNA) [ancrod-11] | binds |  | 
